Results published in US20140072613A1, “Compositions and Methods for Treating Cutaneous Scarring” (priority 2012, published 2014).

Tests used:
Assay in all cases: cell-based or functional assay
[1] = target: AMPKα1(h) (human) (UniProt Q13131)
[2] = target: Abl(h) (human) (UniProt P00519)
[3] = target: T1, Bmx(h) (human) (UniProt P51813)
T1 sequence (looked up): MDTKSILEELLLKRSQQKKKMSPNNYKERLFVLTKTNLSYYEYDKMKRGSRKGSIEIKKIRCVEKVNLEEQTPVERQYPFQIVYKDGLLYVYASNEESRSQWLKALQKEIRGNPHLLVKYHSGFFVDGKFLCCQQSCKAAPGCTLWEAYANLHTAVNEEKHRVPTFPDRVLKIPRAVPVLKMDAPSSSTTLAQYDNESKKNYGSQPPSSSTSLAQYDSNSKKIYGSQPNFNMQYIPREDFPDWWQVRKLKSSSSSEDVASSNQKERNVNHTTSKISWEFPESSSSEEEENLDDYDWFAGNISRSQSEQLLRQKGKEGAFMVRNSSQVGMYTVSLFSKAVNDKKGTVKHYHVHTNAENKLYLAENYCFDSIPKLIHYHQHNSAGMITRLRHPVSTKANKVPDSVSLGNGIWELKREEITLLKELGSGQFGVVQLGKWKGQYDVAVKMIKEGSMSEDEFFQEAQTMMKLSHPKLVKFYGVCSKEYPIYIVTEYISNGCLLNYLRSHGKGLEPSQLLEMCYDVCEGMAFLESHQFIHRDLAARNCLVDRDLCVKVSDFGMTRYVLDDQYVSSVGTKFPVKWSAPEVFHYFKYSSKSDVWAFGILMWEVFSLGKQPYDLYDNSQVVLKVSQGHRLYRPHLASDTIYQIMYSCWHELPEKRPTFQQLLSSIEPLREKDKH

[4] = target: CDK7/cyclinH/MAT1(h) (human) (UniProt P50613)
[5] = target: CaMKIIδ(h) (human) (UniProt Q13557)
[6] = target: T2, Fms(h) (human) (UniProt P07333)
T2 sequence (looked up): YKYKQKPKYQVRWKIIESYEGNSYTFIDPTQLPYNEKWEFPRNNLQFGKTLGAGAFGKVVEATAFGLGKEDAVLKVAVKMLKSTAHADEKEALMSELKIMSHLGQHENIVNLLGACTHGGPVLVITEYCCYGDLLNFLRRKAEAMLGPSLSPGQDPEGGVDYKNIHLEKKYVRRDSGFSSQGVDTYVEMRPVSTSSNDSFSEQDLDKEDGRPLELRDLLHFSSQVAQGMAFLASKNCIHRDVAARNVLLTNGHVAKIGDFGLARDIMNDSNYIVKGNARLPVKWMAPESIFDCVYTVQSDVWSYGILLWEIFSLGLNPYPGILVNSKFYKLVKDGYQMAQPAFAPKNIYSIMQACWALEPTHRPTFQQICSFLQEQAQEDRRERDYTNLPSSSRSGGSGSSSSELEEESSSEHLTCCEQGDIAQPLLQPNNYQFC

[7] = target: HIPK3(h) (human) (UniProt Q9H422)
[8] = target: T3, Itk(h) (human) (UniProt Q08881)
T3 sequence (looked up): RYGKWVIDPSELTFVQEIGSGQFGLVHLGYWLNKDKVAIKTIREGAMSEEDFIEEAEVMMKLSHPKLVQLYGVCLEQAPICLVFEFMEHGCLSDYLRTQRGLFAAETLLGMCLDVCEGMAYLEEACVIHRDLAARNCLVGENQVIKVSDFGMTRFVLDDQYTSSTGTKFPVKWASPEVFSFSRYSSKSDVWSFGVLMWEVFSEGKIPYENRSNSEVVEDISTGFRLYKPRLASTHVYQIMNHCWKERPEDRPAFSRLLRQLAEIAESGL

[9] = target: LOK(h) (human) (UniProt O94804)
[10] = target: Met(D1246H)(h) (human) (UniProt P08581)
[11] = target: Met(h) (human) (UniProt P08581)
[12] = target: T4, NEK11(h) (human) (UniProt Q8NG66)
T4 sequence (looked up): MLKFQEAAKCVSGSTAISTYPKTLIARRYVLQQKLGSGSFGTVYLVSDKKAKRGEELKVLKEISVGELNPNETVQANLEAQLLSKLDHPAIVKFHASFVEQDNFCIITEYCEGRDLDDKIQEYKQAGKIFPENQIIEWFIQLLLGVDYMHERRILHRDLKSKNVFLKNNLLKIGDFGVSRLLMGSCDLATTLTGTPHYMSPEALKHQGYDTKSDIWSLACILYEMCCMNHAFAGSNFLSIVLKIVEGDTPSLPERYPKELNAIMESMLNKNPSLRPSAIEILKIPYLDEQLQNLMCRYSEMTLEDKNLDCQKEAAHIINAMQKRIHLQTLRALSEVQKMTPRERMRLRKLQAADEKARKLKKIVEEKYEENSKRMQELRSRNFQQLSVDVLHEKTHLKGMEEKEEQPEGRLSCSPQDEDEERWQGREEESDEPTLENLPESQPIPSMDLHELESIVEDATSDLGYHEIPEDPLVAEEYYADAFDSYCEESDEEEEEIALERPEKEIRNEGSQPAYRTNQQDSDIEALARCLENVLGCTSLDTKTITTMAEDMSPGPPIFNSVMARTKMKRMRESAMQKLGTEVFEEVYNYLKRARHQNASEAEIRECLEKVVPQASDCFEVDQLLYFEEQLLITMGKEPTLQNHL

[13] = target: PAK2(h) (human) (UniProt Q13177)
[14] = target: PRK2(h) (human) (UniProt Q16513)
[15] = target: Pim-2(h) (human) (UniProt Q9P1W9)
[16] = target: Pim-3(h) (human) (UniProt Q86V86)
[17] = target: SAPK2a(h) (human) (UniProt Q16539)
[18] = target: Tie2(Y897S)(h) (human) (UniProt Q02763)
[19] = target: VRK2(h) (human) (UniProt Q86Y07)
[20] = target: WNK2(h) (human) (UniProt Q9Y3S1)
[21] = target: ZIPK(h) (human) (UniProt O43293)
Chain of ZIPK(h) (human) (O43293 whole entry): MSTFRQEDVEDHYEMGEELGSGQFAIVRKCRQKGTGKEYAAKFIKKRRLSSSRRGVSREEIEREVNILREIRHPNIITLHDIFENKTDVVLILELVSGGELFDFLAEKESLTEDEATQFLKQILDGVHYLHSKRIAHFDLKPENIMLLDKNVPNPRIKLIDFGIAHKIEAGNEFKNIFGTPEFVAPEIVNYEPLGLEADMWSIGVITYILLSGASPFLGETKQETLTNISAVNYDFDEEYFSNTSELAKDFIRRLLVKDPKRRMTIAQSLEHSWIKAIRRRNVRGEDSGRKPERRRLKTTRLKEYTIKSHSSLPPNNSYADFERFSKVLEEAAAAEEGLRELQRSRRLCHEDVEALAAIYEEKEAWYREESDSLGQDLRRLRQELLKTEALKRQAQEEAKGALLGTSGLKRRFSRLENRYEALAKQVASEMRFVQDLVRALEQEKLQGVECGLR

Chain of CaMKIIδ(h) (human) (Q13557 whole entry, stated change not applied): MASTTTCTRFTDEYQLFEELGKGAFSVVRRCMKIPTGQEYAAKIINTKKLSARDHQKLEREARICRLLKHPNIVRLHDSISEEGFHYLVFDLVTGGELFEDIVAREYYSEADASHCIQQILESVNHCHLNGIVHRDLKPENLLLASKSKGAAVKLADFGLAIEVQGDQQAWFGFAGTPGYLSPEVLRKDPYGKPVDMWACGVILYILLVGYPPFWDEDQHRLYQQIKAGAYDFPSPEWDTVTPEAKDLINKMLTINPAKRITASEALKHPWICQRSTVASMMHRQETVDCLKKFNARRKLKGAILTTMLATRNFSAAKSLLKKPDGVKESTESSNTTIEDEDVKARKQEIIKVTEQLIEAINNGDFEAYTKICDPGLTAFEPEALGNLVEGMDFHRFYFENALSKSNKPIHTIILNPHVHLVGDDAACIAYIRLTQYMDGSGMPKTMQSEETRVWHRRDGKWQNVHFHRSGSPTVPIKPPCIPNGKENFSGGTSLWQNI
Chain of VRK2(h) (human) (Q86Y07 whole entry): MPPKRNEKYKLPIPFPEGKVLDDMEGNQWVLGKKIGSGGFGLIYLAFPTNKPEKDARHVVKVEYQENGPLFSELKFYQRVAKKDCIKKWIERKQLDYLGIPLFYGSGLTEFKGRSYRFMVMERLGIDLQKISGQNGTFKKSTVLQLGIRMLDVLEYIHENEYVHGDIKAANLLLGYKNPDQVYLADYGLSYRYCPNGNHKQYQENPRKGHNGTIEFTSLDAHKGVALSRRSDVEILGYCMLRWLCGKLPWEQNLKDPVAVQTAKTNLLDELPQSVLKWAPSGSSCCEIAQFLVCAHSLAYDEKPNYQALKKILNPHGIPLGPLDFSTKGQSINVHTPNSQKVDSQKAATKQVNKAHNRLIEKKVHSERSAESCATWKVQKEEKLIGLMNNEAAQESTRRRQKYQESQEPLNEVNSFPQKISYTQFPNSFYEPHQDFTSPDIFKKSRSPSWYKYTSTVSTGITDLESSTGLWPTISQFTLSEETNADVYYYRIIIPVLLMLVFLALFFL
Chain of LOK(h) (human) (O94804 1-348 limits assumed): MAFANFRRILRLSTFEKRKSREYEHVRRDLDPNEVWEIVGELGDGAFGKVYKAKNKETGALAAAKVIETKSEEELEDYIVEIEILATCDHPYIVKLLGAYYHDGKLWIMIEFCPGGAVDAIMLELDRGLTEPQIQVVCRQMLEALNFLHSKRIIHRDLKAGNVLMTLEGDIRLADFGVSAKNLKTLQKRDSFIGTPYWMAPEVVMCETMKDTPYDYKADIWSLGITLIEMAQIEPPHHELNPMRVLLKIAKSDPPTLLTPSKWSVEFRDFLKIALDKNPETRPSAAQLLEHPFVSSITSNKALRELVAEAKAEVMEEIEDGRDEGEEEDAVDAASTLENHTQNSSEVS
Chain of HIPK3(h) (human) (Q9H422 163-562 limits assumed): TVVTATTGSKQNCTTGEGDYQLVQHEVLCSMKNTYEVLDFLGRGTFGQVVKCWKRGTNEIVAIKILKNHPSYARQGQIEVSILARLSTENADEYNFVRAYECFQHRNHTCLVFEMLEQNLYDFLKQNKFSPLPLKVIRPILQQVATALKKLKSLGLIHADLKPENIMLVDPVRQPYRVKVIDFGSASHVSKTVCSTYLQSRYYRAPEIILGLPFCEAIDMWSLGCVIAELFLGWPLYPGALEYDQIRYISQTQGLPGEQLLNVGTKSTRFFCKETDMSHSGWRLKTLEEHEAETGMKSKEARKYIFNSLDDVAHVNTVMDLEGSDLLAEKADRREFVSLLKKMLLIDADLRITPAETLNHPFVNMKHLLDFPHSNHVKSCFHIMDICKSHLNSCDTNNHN
Chain of Tie2(Y897S)(h) (human) (Q02763 771-1124 Y897S limits assumed): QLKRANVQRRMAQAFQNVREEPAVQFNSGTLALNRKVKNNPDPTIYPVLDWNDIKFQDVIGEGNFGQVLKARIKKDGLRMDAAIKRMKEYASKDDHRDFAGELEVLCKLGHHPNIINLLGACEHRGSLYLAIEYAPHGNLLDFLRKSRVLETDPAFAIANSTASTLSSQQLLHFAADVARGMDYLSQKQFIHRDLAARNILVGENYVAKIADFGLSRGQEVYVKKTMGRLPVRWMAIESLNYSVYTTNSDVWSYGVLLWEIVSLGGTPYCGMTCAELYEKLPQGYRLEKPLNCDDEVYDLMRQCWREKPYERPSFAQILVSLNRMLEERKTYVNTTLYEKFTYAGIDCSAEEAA
Chain of WNK2(h) (human) (Q9Y3S1 166-489 limits assumed): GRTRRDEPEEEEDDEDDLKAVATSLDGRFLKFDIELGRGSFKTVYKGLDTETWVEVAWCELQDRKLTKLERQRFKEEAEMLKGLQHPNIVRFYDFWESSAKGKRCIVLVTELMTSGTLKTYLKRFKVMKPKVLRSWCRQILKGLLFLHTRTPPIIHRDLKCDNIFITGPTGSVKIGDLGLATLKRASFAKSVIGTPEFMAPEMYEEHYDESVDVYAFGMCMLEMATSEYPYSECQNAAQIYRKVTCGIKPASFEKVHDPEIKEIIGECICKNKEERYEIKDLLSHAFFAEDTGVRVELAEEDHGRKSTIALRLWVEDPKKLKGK
Chain of Abl(h) (human) (P00519 27-1130 limits assumed): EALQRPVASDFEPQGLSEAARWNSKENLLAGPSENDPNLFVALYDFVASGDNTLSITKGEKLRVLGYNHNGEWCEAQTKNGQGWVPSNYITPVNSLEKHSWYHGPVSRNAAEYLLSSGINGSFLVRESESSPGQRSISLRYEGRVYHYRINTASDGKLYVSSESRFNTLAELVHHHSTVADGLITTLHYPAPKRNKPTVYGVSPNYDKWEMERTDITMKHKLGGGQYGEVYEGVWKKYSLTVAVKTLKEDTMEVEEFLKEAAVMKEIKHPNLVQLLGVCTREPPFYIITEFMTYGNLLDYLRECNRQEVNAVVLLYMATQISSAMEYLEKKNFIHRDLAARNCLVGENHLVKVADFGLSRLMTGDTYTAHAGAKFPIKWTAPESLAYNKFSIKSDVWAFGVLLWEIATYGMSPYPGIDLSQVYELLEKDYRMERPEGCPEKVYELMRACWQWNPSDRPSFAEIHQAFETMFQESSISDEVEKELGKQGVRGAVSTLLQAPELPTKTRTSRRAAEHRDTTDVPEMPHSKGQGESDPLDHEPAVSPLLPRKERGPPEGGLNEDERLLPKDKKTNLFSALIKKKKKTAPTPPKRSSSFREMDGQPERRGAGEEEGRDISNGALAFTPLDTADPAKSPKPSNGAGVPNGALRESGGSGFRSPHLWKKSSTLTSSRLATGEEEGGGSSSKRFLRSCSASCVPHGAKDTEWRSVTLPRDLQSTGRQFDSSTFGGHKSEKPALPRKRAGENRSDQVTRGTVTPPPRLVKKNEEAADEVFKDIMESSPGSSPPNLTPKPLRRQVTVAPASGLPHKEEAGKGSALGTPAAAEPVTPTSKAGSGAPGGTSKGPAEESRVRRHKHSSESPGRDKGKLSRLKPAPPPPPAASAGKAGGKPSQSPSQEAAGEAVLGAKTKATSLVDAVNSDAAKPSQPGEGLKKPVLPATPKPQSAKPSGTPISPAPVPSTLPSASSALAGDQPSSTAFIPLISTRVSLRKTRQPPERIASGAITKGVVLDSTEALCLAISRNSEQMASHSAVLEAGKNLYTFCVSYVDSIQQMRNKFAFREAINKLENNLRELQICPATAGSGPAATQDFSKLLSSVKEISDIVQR
Chain of AMPKα1(h) (human) (Q13131 whole entry): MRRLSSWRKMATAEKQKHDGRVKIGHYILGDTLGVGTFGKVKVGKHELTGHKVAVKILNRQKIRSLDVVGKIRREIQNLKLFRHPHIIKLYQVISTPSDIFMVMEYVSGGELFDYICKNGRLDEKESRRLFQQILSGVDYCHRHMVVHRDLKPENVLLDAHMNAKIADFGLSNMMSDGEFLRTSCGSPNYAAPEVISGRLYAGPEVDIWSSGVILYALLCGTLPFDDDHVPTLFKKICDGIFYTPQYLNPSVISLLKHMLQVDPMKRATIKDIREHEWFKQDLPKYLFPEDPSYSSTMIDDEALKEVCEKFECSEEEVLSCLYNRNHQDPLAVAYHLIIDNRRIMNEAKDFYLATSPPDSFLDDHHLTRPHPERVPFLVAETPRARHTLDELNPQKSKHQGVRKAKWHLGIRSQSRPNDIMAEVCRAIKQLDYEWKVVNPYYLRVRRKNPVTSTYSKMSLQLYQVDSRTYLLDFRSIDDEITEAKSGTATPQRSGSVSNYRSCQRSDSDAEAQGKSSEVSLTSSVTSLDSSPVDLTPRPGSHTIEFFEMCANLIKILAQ

% activity, 100 µM [1]: 35%
% activity, 100 µM [2]: 16%
% activity, 100 µM [3]: 45%
% activity, 100 µM [4]: 15%
% activity, 100 µM [5]: 1%
% activity, 100 µM [6]: 14%
% activity, 100 µM [7]: 85%
% activity, 100 µM [8]: 7%
% activity, 100 µM [9]: 7%
% activity, 100 µM [10]: 150%
% activity, 100 µM [11]: 27%
% activity, 100 µM [12]: 2%
% activity, 100 µM [13]: 44%
% activity, 100 µM [14]: 7%
% activity, 100 µM [15]: 46%
% activity, 100 µM [16]: 37%
% activity, 100 µM [17]: 52%
% activity, 100 µM [18]: 80%
% activity, 100 µM [19]: 169%
% activity, 100 µM [20]: 8%
% activity, 100 µM [21]: 1%
Substance: MMI-0500 (peptide)
